Values of other authors, collected in patent US20130064803A1, “BIO-REPLENISHMENT (BioRep) FOR COGNITIVE HEALTH” (Naidu LP, priority 2011, published 2013).

Conditions: intravenous infusion

B1: LF: 80-kD heparan- and metal-binding glycoprotein, member of the transferrin super-family (protein, UniProt P02788 20-710, looked up)
Lactotransferrin: GRRRSVQWCAVSQPEATKCFQWQRNMRKVRGPPVSCIKRDSPIQCIQAIAENRADAVTLDGGFIYEAGLAPYKLRPVAAEVYGTERQPRTHYYAVAVVKKGGSFQLNELQGLKSCHTGLRRTAGWNVPIGTLRPFLNWTGPPEPIEAAVARFFSASCVPGADKGQFPNLCRLCAGTGENKCAFSSQEPYFSYSGAFKCLRDGAGDVAFIRESTVFEDLSDEAERDEYELLCPDNTRKPVDKFKDCHLARVPSHAVVARSVNGKEDAIWNLLRQAQEKFGKDKSPKFQLFGSPSGQKDLLFKDSAIGFSRVPPRIDSGLYLGSGYFTAIQNLRKSEEEVAARRARVVWCAVGEQELRKCNQWSGLSEGSVTCSSASTTEDCIALVLKGEADAMSLDGGYVYTAGKCGLVPVLAENYKSQQSSDPDPNCVDRPVEGYLAVAVVRRSDTSLTWNSVKGKKSCHTAVDRTAGWNIPMGLLFNQTGSCKFDEYFSQSCAPGSDPRSNLCALCIGDEQGENKCVPNSNERYYGYTGAFRCLAENAGDVAFVKDVTVLQNTDGNNNEAWAKDLKLADFALLCLDGKRKPVTEARSCHLAMAPNHAVVSRMDKVERLKQVLLHQQAKFGRNGSDCPDKFCLFQSETKNLLFNDNTECLARLHGKTTYEKYLGPQYVAGITNLKKCSTSPLLEACEFLRK
time to reach the cerebrospinal fluid: ≤ 30 min
